# Source: US20230036060A1, “DUAL-CONTROLLED DRUG AND PHOTOACTIVATABLE SYSTEM FOR SPATIOTEMPORAL CONTROL OF CELL THERAPY” (THE REGENTS OF THE UNIVERSITY OF CALIFORNIA, priority 2019, published 2023)
# Assays:
# NLS-pMag-CreC = experiment: cell-based or functional assay
# [1] = target: CIB1-CreC(106-343) (Arabidopsis thaliana) (UniProt Q8GY61); experiment: cell-based or functional assay
# Sequence of CreN(19-59)-nMag-NLS (P06956 19-59): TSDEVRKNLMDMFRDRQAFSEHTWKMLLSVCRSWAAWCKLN
# Sequence of NLS-pMag-CreC (chain, as listed by the source): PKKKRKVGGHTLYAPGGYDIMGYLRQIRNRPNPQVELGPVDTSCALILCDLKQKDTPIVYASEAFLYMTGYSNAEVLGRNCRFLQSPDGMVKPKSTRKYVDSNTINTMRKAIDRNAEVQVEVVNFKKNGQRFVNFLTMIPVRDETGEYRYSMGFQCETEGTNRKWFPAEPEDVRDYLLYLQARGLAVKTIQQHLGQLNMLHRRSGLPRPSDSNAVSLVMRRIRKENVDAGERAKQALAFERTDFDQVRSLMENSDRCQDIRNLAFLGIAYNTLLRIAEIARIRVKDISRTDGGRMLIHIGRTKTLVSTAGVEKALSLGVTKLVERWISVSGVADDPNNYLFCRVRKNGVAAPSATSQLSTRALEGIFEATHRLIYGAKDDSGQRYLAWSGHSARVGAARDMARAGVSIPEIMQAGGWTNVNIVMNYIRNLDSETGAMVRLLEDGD
Substance,"fold increase in Cre-loxP recombination, PA-Cre-M, Light against Dark (NLS-pMag-CreC)","fold increase in recombined PA-Cre-M+ CAR Reporter Jurkat T cells, Light against Dark (NLS-pMag-CreC)","normalized % recombined (CAR-EGFP+) PA-Cre-M+ CAR Reporter Jurkat T cells, Dark (NLS-pMag-CreC)","normalized % recombined (CAR-EGFP+) PA-Cre-M+ CAR Reporter Jurkat T cells, Light, Protocol E (NLS-pMag-CreC)","normalized % recombined (EGFP+) EGFP Reporter HEK293T cells, PA-Cre-M, Light (30 W/m2, 30 s) (NLS-pMag-CreC)","normalized % recombined EGFP Reporter HEK293T cells, PA-Cre-M, Ambient light (NLS-pMag-CreC)","normalized % recombined EGFP Reporter HEK293T cells, PA-Cre-M, Ambient, Protocol B experiment (NLS-pMag-CreC)","normalized % recombined EGFP Reporter HEK293T cells, PA-Cre-M, Dark (pulsatile protocol experiment) (NLS-pMag-CreC)","normalized % recombined EGFP Reporter HEK293T cells, PA-Cre-M, Dark (spontaneous background) (NLS-pMag-CreC)","normalized % recombined EGFP Reporter HEK293T cells, PA-Cre-M, Dark, Protocol B experiment (NLS-pMag-CreC)","normalized % recombined EGFP Reporter HEK293T cells, PA-Cre-M, Light, Protocol B (NLS-pMag-CreC)","fold increase in Cre-loxP recombination, PA-Cre-C, Light against Dark [1]","normalized % recombined (EGFP+) EGFP Reporter HEK293T cells, PA-Cre-C, Light (30 W/m2, 30 s) [1]"
CreN(19-59)-nMag-NLS (from UniProt P06956 19-59),3.4 fold,4.1 fold,5.2%,21.2%,90.8%,28.9%,45.2%,20.4%,26.7%,32.9%,84.8%,–,–
CRY2(L348F)-CreN(19-104) (from UniProt Q96524 1-612; P06956 19-104),–,–,–,–,–,–,–,–,–,–,–,2.1 fold,12.1%
